The subject of series [1] is HeLa Kyoto. Briefly: solubility in G1/S (NP-40 vs SDS abundance) (log2 ratio); higher = more soluble. The conditions noted are these: cell cycle stage: G1/S.
The subject of series [2] is HeLa Kyoto. The experiment in a line: solubility change mitosis vs G1/S (difference of NP-40 vs SDS log2 ratios) (log2 ratio difference); higher = more soluble in mitosis.
The test system of series [3] is HeLa Kyoto. Briefly: melting temperature (median over replicates), in situ; higher = more thermally stable.
The subject of series [4] is HeLa Kyoto. Briefly: thermal stability score vs G1/S (z-score of summed log2 fold changes over temperatures); higher = more thermally stable than in G1/S.
Setting [5] is: cell cycle stage: early G1 (4.5 h after nocodazole release).
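For melting temperature (median over replicates), in situ in this document: HeLa Kyoto cells synchronized by double thymidine or nocodazole block, proteins quantified by TMT10plex mass spectrometry, three independent biological replicates.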
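For solubility change mitosis vs G1/S (difference of NP-40 vs SDS log2 ratios) in this document: synchronized HeLa Kyoto cells (double thymidine block for G1/S, nocodazole release for mitosis), protein amounts in NP-40 versus SDS lysates quantified by mass spectrometry, three biological replicates.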
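For solubility in G1/S (NP-40 vs SDS abundance) in this document: HeLa Kyoto cells arrested at G1/S by double thymidine block, proteins quantified by TMT10plex mass spectrometry in mild NP-40 versus SDS extracts, three biological replicates.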
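For thermal stability score vs G1/S (z-score of summed log2 fold changes over temperatures) in this document: synchronized HeLa Kyoto cells, proteins quantified by TMT10plex mass spectrometry, three biological replicates, mitosis taken 0.5 h after nocodazole release, G1/S directly after double thymidine block.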

With “MSNYSVSLVGPAPWGFRLQGGKDFNMPLTISSLKDGGKAAQANVRIGDVVLSIDGINAQGMTHLEAQNKIKGCTGSLNMTLQRASAAPKPEPVPVQKGEPKEVVKPVPITSPAVSKVTSTNNMAYNKAPRPFGSVSSPKVTSIPSPSSAFTPAHATTSSHASPSPVAAVTPPLFAASGLHANANLSADQSPSALSAGKTAVNVPRQPTVTSVCSETSQELAEGQRRGSQGDSKQQNGPPRKHIVERYTEFYHVPTHSDASKKRLIEDTEDWRPRTGTTQSRSFRILAQITGTEHLKESEADNTKKANNSQEPSPQLASSVASTRSMPESLDSPTSGRPGVTSLTAAAAFKPVGSTGVIKSPSWQRPNQGVPSTGRISNSATYSGSVAPANSALGQTQPSDQDTLVQRAEHIPAGKRTPMCAHCNQVIRGPFLVALGKSWHPEEFNCAHCKNTMAYIGFVEEKGALYCELCYEKFFAPECGRCQRKILGEVISALKQTWHVSCFVCVACGKPIRNNVFHLEDGEPYCETDYYALFGTICHGCEFPIEAGDMFLEALGYTWHDTCFVCSVCCESLEGQTFFSKKDKPLCKKHAHSVNF [PDLIM5]”, the “solubility in G1/S (log2)” value in the series with HeLa Kyoto [1] worked out at 0.0686. Further, the “solubility change mitosis (log2)” value in the series with HeLa Kyoto [2] was 0.0095. Moreover, the melting temperature in the series on HeLa Kyoto [3] (cell cycle stage: G1/S) stood at 52.1 °C; in the series on HeLa Kyoto [3] (cell cycle stage: mitosis) it was 52.6 °C. Moreover, the thermal stability score with HeLa Kyoto [4] (setting [5]) is -0.121; in the series with HeLa Kyoto [4] (cell cycle stage: mitosis) it was 0.334.
For the substance “MKFLLDILLLLPLLIVCSLESFVKLFIPKRRKSVTGEIVLITGAGHGIGRLTAYEFAKLKSKLVLWDINKHGLEETAAKCKGLGAKVHTFVVDCSNREDIYSSAKKVKAEIGDVSILVNNAGVVYTSDLFATQDPQIEKTFEVNVLAHFWTTKAFLPAMTKNNHGHIVTVASAAGHVSVPFLLAYCSSKFAAVGFHKTLTDELAALQITGVKTTCLCPNFVNTGFIKNPSTSLGPTLEPEEVVNRLMHGILTEQKMIFIPSSIAFLTTLERILPERFLAVLKRKISVKFDAVIGYKMKAQ [HSD17B11]”, in the series with HeLa Kyoto [1], the “solubility in G1/S (log2)” value was -0.334. Also, the “solubility change mitosis (log2)” value in the series with HeLa Kyoto [2] is -0.138. In addition, the figures for the melting temperature in the series on HeLa Kyoto [3] (cell cycle stage: G1/S) and in the series with HeLa Kyoto [3] (cell cycle stage: mitosis) were 55.1 °C and 54.8 °C, respectively. Further, the thermal stability score in the series on HeLa Kyoto [4] (setting [5]) was 0.073; in the series with HeLa Kyoto [4] (cell cycle stage: mitosis), -3.33.
With “MRVAALISGGKDSCYNMMQCIAAGHQIVALANLRPAENQVGSDELDSYMYQTVGHHAIDLYAEAMALPLYRRTIRGRSLDTRQVYTKCEGDEVEDLYELLKLVKEKEEVEGISVGAILSDYQRIRVENVCKRLNLQPLAYLWQRNQEDLLREMISSNIQAMIIKVAALGLDPDKHLGKTLDQMEPYLIELSKKYGVHVCGEGGEYETFTLDCPLFKKKIIVDSSEVVIHSADAFAPVAYLRFLELHLEDKVSSVPDNYRTSNYIYNF [DPH6]”, the “solubility in G1/S (log2)” value with HeLa Kyoto [1] came to 0.152. Besides, the “solubility change mitosis (log2)” value in the series on HeLa Kyoto [2] was -0.0821. Further, the melting temperature in the series with HeLa Kyoto [3] (cell cycle stage: G1/S) was found to be 50.2 °C; in the series with HeLa Kyoto [3] (cell cycle stage: mitosis), 50.6 °C. Also, the thermal stability score in the series with HeLa Kyoto [4] (setting [5]) is -0.982; with HeLa Kyoto [4] (cell cycle stage: mitosis), 0.029.
Regarding “MEWWASSPLRLWLLLFLLPSAQGRQKESGSKWKVFIDQINRSLENYEPCSSQNCSCYHGVIEEDLTPFRGGISRKMMAEVVRRKLGTHYQITKNRLYRENDCMFPSRCSGVEHFILEVIGRLPDMEMVINVRDYPQVPKWMEPAIPVFSFSKTSEYHDIMYPAWTFWEGGPAVWPIYPTGLGRWDLFREDLVRSAAQWPWKKKNSTAYFRGSRTSPERDPLILLSRKNPKLVDAEYTKNQAWKSMKDTLGKPAAKDVHLVDHCKYKYLFNFRGVAASFRFKHLFLCGSLVFHVGDEWLEFFYPQLKPWVHYIPVKTDLSNVQELLQFVKANDDVAQEIAERGSQFIRNHLQMDDITCYWENLLSEYSKFLSYNVTRRKGYDQIIPKMLKTEL [POGLUT1]”, in the series with HeLa Kyoto [1], the “solubility in G1/S (log2)” value stood at 0.28. In addition, in the series with HeLa Kyoto [2], the “solubility change mitosis (log2)” value was -0.0965. The figures for the melting temperature in the series with HeLa Kyoto [3] (cell cycle stage: G1/S) and in the series on HeLa Kyoto [3] (cell cycle stage: mitosis) were 52.9 °C and 54 °C, respectively. Further, the thermal stability score with HeLa Kyoto [4] (setting [5]) came out at 2.61; with HeLa Kyoto [4] (cell cycle stage: mitosis), 3.25.
Consider HSP90AB1, for which the “solubility in G1/S (log2)” value in the series with HeLa Kyoto [1] is -0.0892. In addition, the “solubility change mitosis (log2)” value with HeLa Kyoto [2] is -0.125. Also, the melting temperature was found to be 51.3 °C in the series with HeLa Kyoto [3] (cell cycle stage: G1/S) and 51.1 °C with HeLa Kyoto [3] (cell cycle stage: mitosis). For the same substance, the thermal stability score was determined as 0.311 in the series with HeLa Kyoto [4] (setting [5]) and 0.779 in the series on HeLa Kyoto [4] (cell cycle stage: mitosis).

(Values after the supplement of paper PMC5998384.)
